Data taken from article PMC4939875 (Nature, 2016).
Blank lines part the entries; values can stand above or below the molecule they belong to.

Key:
histones H3–H4 = assay: Pull-down with recombinant histones H3–H4; assay type: binding; details: GST-ARD with H3–H4 tetramers, 20 mM Tris pH 7.5, 0.5 M NaCl, 23 °C, 1 h; IVT full length TONSL with H3.1–H4 beads, 2 h
U-2-OS cells = assay: Clonogenic assay upon GFP-TONSL induction; assay type: cell-based; details: siTONSL; presence and absence of CPT 50 nM 24 h; 12-15 days; +tet

direct binding to histones H3–H4 in vitro (histones H3–H4): bound directly to histones H3–H4
B1: WT: human TONSL Ankyrin Repeat Domain (residues 512–692), wild type (protein)
chain: GHLGRRKGSKWNRRNDMGETLLHRACIEGQLRRVQDLVRQGHPLNPRDYCGWTPLHEACNYGHLEIVRFLLDHGAAVDDPGGQGCEGITPLHDALNCGHFEVAELLLERGASVTLRTRKGLSPLETLQQWVKLYRRDLDLETRQKARAMEMLLQAAASGQDPHSSQAFHTPSSLLFDPETS
modifications: left off: GST, end not stated, cleaved

B2: TONSL WT: siRNA resistant GFP-TONSL, wild type, inducible in U-2-OS (protein)
chain: MSLERELRQLSKAKAKAQRAGQRREEAALCHQLGELLAGHGRYAEALEQHWQELQLRERADDPLGCAVAHRKIGERLAEMEDYPAALQHQHQYLELAHSLRNHTELQRAWATIGRTHLDIYDHCQSRDALLQAQAAFEKSLAIVDEELEGTLAQGELNEMRTRLYLNLGLTFESLQQTALCNDYFRKSIFLAEQNHLYEDLFRARYNLGTIHWRAGQHSQAMRCLEGARECAHTMRKRFMESECCVVIAQVLQDLGDFLAAKRALKKAYRLGSQKPVQRAAICQNLQHVLAVVRLQQQLEEAEGRDPQGAMVICEQLGDLFSKAGDFPRAAEAYQKQLRFAELLDRPGAERAIIHVSLATTLGDMKDHHGAVRHYEEELRLRSGNVLEEAKTWLNIALSREEAGDAYELLAPCFQKALSCAQQAQRPQLQRQVLQHLHTVQLRLQPQEAPETETRLRELSVAEDEDEEEEAEEAAATAESEALEAGEVELSEGEDDTDGLTPQLEEDEELQGHLGRRKGSKWNRRNDMGETLLHRACIEGQLRRVQDLVRQGHPLNPRDYCGWTPLHEACNYGHLEIVRFLLDHGAAVDDPGGQGCEGITPLHDALNCGHFEVAELLLERGASVTLRTRKGLSPLETLQQWVKLYRRDLDLETRQKARAMEMLLQAAASGQDPHSSQAFHTPSSLLFDPETSPPLSPCPEPPSNSTRLPEASQAHVRVSPGQAAPAMARPRRSRHGPASSSSSSEGEDSAGPARPSQKRPRCSATAQRVAAWTPGPASNREAATASTSRAAYQAAIRGVGSAQSRLGPGPPRGHSKALAPQAALIPEEECLAGDWLELDMPLTRSRRPRPRGTGDNRRPSSTSGSDSEESRPRARAKQVRLTCMQSCSAPVNAGPSSLASEPPGSPSTPRVSEPSGDSSAAGQPLGPAPPPPIRVRVQVQDHLFLIPVPHSSDTHSVAWLAEQAAQRYYQTCGLLPRLTLRKEGALLAPQDLIPDVLQSNDEVLAEVTSWDLPPLTDRYRRACQSLGQGEHQQVLQAVELQGLGLSFSACSLALDQAQLTPLLRALKLHTALRELRLAGNRLGDKCVAELVAALGTMPSLALLDLSSNHLGPEGLRQLAMGLPGQATLQSLEELDLSMNPLGDGCGQSLASLLHACPLLSTLRLQACGFGPSFFLSHQTALGSAFQDAEHLKTLSLSYNALGAPALARTLQSLPAGTLLHLELSSVAAGKGDSDLMEPVFRYLAKEGCALAHLTLSANHLGDKAVRDLCRCLSLCPSLISLDLSANPEISCASLEELLSTLQKRPQGLSFLGLSGCAVQGPLGLGLWDKIAAQLRELQLCSRRLCAEDRDALRQLQPSRPGPGECTLDHGSKLFFRRL
modifications: left off: GFP, end not stated, kept
viability of TONSL depleted cells (colony formation) (U-2-OS cells): partially rescued viability

direct binding to histones H3–H4 in vitro (histones H3–H4): bound directly to histones H3–H4
B3: Full length TONSL: in vitro-translated full length TONSL (protein)
chain: B2 chain
modifications: 35S-methionine
